{"source": "paper PMC9060518", "biological_target": "KCNQ5-ER-c"}
{"substance": "KCNQ2-ER-n (from UniProt O43526)", "values": [{"measurement": "block of KCNQ2/5-tandem currents by 10 mM TEA in HEK293T cells", "value": 48, "unit": "% block"}]}
